Data published in paper PMC10600506.

Target: SARS-CoV-2 Omicron BA.1 Spike receptor-binding domain (SARS-CoV-2 Omicron BA.1)
Experiment: BLI; RBD1 with hACE2, 'with the same assay condition' as Nb4 with RBD1

angiotensin-converting enzyme 2, extracellular, sequence (Q9BYF1 20-615): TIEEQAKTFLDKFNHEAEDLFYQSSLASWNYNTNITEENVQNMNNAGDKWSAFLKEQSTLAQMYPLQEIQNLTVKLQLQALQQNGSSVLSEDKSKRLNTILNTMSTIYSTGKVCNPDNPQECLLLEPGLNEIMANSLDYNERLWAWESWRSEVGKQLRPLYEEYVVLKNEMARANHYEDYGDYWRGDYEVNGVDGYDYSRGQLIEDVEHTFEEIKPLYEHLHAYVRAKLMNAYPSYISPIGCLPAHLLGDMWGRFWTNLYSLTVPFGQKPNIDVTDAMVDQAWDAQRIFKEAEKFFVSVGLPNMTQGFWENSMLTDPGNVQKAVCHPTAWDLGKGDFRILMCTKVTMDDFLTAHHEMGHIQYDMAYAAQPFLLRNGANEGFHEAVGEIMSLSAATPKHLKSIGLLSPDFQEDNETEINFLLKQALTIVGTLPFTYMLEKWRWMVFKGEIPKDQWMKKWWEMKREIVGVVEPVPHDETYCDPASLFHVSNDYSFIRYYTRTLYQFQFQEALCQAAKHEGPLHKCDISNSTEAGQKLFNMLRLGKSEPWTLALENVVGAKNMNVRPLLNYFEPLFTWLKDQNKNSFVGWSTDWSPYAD

**Q.** With “angiotensin-converting enzyme 2, extracellular (from UniProt Q9BYF1 20-615) (receptor)” as the substance, how does the Kd read?
**A.** 9 nM
